Reference: patent US20200317768A1 (published 2020)

Tests used:
Assay in all cases: SPR (BIACORE); KD of SG1 divided by KD of variant;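 note: relative to parent M103205H795-SG1 carrying the SG1 human heavy chain constant region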
[1] = biological target: T1, cynomolgus monkey FcγRIIa1 extracellular domain, His-tagged (cynomolgus monkey)
T1 construct: also called cyno FcγRIIa1; cynoFcgRIIa1; not shown: C-terminal His-tag
T1 chain: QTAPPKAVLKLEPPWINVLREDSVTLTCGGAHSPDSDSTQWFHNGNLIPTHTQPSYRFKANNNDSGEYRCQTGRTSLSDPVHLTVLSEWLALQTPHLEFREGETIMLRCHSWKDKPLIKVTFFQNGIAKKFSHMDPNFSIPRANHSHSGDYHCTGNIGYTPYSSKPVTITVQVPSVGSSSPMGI
Description: (§1) The kinetic analysis of interactions between these antibodies and FcγR was carried out using BIACORE® T200 or BIACORE® 4000 (GE Healthcare). HBS-EP+ (GE Healthcare) was used as the running buffer, and the measurement temperature was set to 25° C. A chip produced by immobilizing Protein A. Protein A/G or mouse anti-human IgG kappa light chain (BD Biosciences) onto a Series S Sensor Chip CM4 or CM5 (GE Healthcare) by the amine-coupling method was used. […] After the measurement, the antibody captured on the chip was washed off by allowing reaction with 10 mM glycine-HCl, pH1.5 and 25 mM NaOH so that the chip was regenerated and used repeatedly. The sensorgrams obtained as measurement results were analyzed by the 1:1 Langmuir binding model using the BIACORE® Evaluation Software to calculate the binding rate constant ka (L/mol/s) and dissociation rate constant kd (l/s), and the dissociation constant KD (mol/L) was calculated from these values. […] Regarding such interactions, KD values were calculated using the following 1:1 binding model described in BIACORE® T100 Software Handbook BR1006-48 Edition AE.

[2] = biological target: T2, cynomolgus monkey FcγRIIa2 extracellular domain, His-tagged (cynomolgus monkey)
T2 construct: also called cyno FcγRIIa2; cynoFcgRIIa2; not shown: C-terminal His-tag
T2 chain: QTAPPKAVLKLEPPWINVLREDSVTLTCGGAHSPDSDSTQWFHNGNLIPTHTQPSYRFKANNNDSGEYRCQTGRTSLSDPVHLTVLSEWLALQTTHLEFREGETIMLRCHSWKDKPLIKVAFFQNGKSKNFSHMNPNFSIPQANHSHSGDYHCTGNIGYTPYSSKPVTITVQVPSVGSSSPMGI
Description: as §1

[3] = biological target: T3, cynomolgus monkey FcγRIIa3 extracellular domain, His-tagged (cynomolgus monkey)
T3 construct: also called cyno FcγRIIa3; cynoFcgRIIa3; not shown: C-terminal His-tag
T3 chain: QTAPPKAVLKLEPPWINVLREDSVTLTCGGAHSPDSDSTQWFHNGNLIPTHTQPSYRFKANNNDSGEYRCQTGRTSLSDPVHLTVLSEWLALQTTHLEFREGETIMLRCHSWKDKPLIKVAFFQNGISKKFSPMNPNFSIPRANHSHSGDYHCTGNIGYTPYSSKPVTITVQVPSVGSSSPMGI
Description: as §1

[4] = biological target: T4, cynomolgus monkey FcγRIIb extracellular domain, His-tagged (cynomolgus monkey)
T4 construct: also called cyno FcγRIIb; cynoFcγRIIb; not shown: C-terminal His-tag
T4 chain: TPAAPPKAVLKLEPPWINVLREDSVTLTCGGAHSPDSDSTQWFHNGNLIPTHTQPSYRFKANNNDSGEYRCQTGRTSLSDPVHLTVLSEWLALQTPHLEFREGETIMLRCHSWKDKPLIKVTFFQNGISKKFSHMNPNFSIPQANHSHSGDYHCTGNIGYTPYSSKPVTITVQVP
Description: as §1

[5] = biological target: T5, cynomolgus monkey FcγRIIIaS extracellular domain, His-tagged (cynomolgus monkey, UniProt Q8SPW2 21-206 at identity 1.00))
T5 construct: also called cyno FcγRIIIaS; cynoFcγRIIIaS; not shown: C-terminal His-tag
T5 chain: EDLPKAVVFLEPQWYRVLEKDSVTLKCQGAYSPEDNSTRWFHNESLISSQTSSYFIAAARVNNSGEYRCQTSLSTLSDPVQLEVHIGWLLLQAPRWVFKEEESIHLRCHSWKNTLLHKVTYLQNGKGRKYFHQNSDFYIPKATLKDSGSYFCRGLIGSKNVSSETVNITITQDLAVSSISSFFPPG
Description: as §1

[6] = biological target: T6, human FcγRIIaR extracellular domain, His-tagged (human, UniProt P12318 34-217)
T6 construct: also called human FcγRIIa (type R); FcgRIIaR; not shown: C-terminal His-tag
T6 chain: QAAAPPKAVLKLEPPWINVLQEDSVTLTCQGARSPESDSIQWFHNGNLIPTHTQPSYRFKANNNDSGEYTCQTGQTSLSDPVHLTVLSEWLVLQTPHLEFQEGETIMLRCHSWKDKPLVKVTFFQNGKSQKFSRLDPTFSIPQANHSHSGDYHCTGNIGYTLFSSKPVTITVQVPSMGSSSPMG
Description: as §1

[7] = biological target: T7, human FcγRIIIaV extracellular domain, His-tagged (human, UniProt P08637 17-208)
T7 construct: also called FcgRIIIaV; not shown: C-terminal His-tag
T7 sequence (P08637 17-208 F176V): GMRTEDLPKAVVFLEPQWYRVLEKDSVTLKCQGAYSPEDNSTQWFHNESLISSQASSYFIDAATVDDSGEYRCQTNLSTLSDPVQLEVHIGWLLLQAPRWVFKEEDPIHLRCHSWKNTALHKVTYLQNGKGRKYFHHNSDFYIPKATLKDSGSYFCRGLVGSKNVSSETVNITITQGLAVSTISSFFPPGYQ
Description: as §1

Binder	KD fold (SG1 = 1) [1] [fold]	KD fold (SG1 = 1) [2] [fold]	KD fold (SG1 = 1) [3] [fold]	KD fold (SG1 = 1) [4] [fold]	KD fold (SG1 = 1) [5] [fold]	KD fold (SG1 = 1) [6] [fold]	KD fold (SG1 = 1) [7] [fold]
M103205H795-MY441/M103202L889-SK1 (antibody, human IgG1, kappa, copies: 2 + 2) heavy: QVTLKESGPVLVKPTETLTLTCTVSGIDLSHDDISWVRQAPGKGLEWVGIISYAGSTYYASWAKGRLTISKDTSKNQVVLTMTNMDPVDTATYYCARGVPAYSHGGDLWGQGTLVTVSSASTKGPSVFPLAPSSKSTSGGTAALGCLVKDYFPEPVTVSWNSGALTSGVHTFPAVLQSSGLYSLSSVVTVPSSSLGTQTYICNVNHKPSNTKVDKKVEPKSCDKTHTCPPCPAAELLTGPSVFLFPPKPKDTLMISRTPEVTCVVVDVSDEDPEVKFNWYVDGVEVHNAKTKPREEQYNSTYRVVSVLTVLHQDWLNGKEYKCKVSNKALPKPIEKTISKAKGQPREPQVYTLPPSREEMTKNQVSLTCLVKGFYPSDIAVEWESNGQPENNYKTTPPVLDSDGSFFLYSKLTVDKSRWQQGNVFSCSVMHEALHNHYTQKSLSLSP light: DIVMTQSPATLSLSPGERATLSCTSSQSVYHANWLSWFQQKPGQPPKLLIYWASTLAYGVPSRFSGSGSGTDFTLTISSLQPEDAATYYCAGGYGGGRYAFGQGTKVEIKRTVAAPSVFIFPPSDEQLKSGTASVVCLLNNFYPREAKVQWKVDNALQSGNSQESVTEQDSKDSTYSLSSTLTLSKADYEKHKVYACEVTHQGLSSPVTKSFNRGEC	0.8	1.5	2.1	2	0.1	1.8	0.1
M103205H795-MY444/M103202L889-SK1 (antibody, human IgG1, kappa, copies: 2 + 2) heavy: QVTLKESGPVLVKPTETLTLTCTVSGIDLSHDDISWVRQAPGKGLEWVGIISYAGSTYYASWAKGRLTISKDTSKNQVVLTMTNMDPVDTATYYCARGVPAYSHGGDLWGQGTLVTVSSASTKGPSVFPLAPSSKSTSGGTAALGCLVKDYFPEPVTVSWNSGALTSGVHTFPAVLQSSGLYSLSSVVTVPSSSLGTQTYICNVNHKPSNTKVDKKVEPKSCDKTHTCPPCPAFELLTGPSVFLFPPKPKDTLMISRTPEVTCVVVDVSDEDPEVKFNWYVDGVEVHNAKTKPREEQYNSTYRVVSVLTVLHQDWLNGKEYKCKVSNKALPKPIEKTISKAKGQPREPQVYTLPPSREEMTKNQVSLTCLVKGFYPSDIAVEWESNGQPENNYKTTPPVLDSDGSFFLYSKLTVDKSRWQQGNVFSCSVMHEALHNHYTQKSLSLSP light: DIVMTQSPATLSLSPGERATLSCTSSQSVYHANWLSWFQQKPGQPPKLLIYWASTLAYGVPSRFSGSGSGTDFTLTISSLQPEDAATYYCAGGYGGGRYAFGQGTKVEIKRTVAAPSVFIFPPSDEQLKSGTASVVCLLNNFYPREAKVQWKVDNALQSGNSQESVTEQDSKDSTYSLSSTLTLSKADYEKHKVYACEVTHQGLSSPVTKSFNRGEC	2.7	4.6	6.9	6	0.2	7.9	0.3
M103205H795-MY445/M103202L889-SK1 (antibody, human IgG1, kappa, copies: 2 + 2) heavy: QVTLKESGPVLVKPTETLTLTCTVSGIDLSHDDISWVRQAPGKGLEWVGIISYAGSTYYASWAKGRLTISKDTSKNQVVLTMTNMDPVDTATYYCARGVPAYSHGGDLWGQGTLVTVSSASTKGPSVFPLAPSSKSTSGGTAALGCLVKDYFPEPVTVSWNSGALTSGVHTFPAVLQSSGLYSLSSVVTVPSSSLGTQTYICNVNHKPSNTKVDKKVEPKSCDKTHTCPPCPAGELLTGPSVFLFPPKPKDTLMISRTPEVTCVVVDVSDEDPEVKFNWYVDGVEVHNAKTKPREEQYNSTYRVVSVLTVLHQDWLNGKEYKCKVSNKALPKPIEKTISKAKGQPREPQVYTLPPSREEMTKNQVSLTCLVKGFYPSDIAVEWESNGQPENNYKTTPPVLDSDGSFFLYSKLTVDKSRWQQGNVFSCSVMHEALHNHYTQKSLSLSP light: DIVMTQSPATLSLSPGERATLSCTSSQSVYHANWLSWFQQKPGQPPKLLIYWASTLAYGVPSRFSGSGSGTDFTLTISSLQPEDAATYYCAGGYGGGRYAFGQGTKVEIKRTVAAPSVFIFPPSDEQLKSGTASVVCLLNNFYPREAKVQWKVDNALQSGNSQESVTEQDSKDSTYSLSSTLTLSKADYEKHKVYACEVTHQGLSSPVTKSFNRGEC	0.6	0.9	1.2	1.9	0.1	1	0.1
M103205H795-MY443/M103202L889-SK1 (antibody, human IgG1, kappa, copies: 2 + 2) heavy: QVTLKESGPVLVKPTETLTLTCTVSGIDLSHDDISWVRQAPGKGLEWVGIISYAGSTYYASWAKGRLTISKDTSKNQVVLTMTNMDPVDTATYYCARGVPAYSHGGDLWGQGTLVTVSSASTKGPSVFPLAPSSKSTSGGTAALGCLVKDYFPEPVTVSWNSGALTSGVHTFPAVLQSSGLYSLSSVVTVPSSSLGTQTYICNVNHKPSNTKVDKKVEPKSCDKTHTCPPCPAEELLTGPSVFLFPPKPKDTLMISRTPEVTCVVVDVSDEDPEVKFNWYVDGVEVHNAKTKPREEQYNSTYRVVSVLTVLHQDWLNGKEYKCKVSNKALPKPIEKTISKAKGQPREPQVYTLPPSREEMTKNQVSLTCLVKGFYPSDIAVEWESNGQPENNYKTTPPVLDSDGSFFLYSKLTVDKSRWQQGNVFSCSVMHEALHNHYTQKSLSLSP light: DIVMTQSPATLSLSPGERATLSCTSSQSVYHANWLSWFQQKPGQPPKLLIYWASTLAYGVPSRFSGSGSGTDFTLTISSLQPEDAATYYCAGGYGGGRYAFGQGTKVEIKRTVAAPSVFIFPPSDEQLKSGTASVVCLLNNFYPREAKVQWKVDNALQSGNSQESVTEQDSKDSTYSLSSTLTLSKADYEKHKVYACEVTHQGLSSPVTKSFNRGEC	0.7	1	1.9	1.5	0.1	1.7	0.1
M103205H795-MY442/M103202L889-SK1 (antibody, human IgG1, kappa, copies: 2 + 2) heavy: QVTLKESGPVLVKPTETLTLTCTVSGIDLSHDDISWVRQAPGKGLEWVGIISYAGSTYYASWAKGRLTISKDTSKNQVVLTMTNMDPVDTATYYCARGVPAYSHGGDLWGQGTLVTVSSASTKGPSVFPLAPSSKSTSGGTAALGCLVKDYFPEPVTVSWNSGALTSGVHTFPAVLQSSGLYSLSSVVTVPSSSLGTQTYICNVNHKPSNTKVDKKVEPKSCDKTHTCPPCPADELLTGPSVFLFPPKPKDTLMISRTPEVTCVVVDVSDEDPEVKFNWYVDGVEVHNAKTKPREEQYNSTYRVVSVLTVLHQDWLNGKEYKCKVSNKALPKPIEKTISKAKGQPREPQVYTLPPSREEMTKNQVSLTCLVKGFYPSDIAVEWESNGQPENNYKTTPPVLDSDGSFFLYSKLTVDKSRWQQGNVFSCSVMHEALHNHYTQKSLSLSP light: DIVMTQSPATLSLSPGERATLSCTSSQSVYHANWLSWFQQKPGQPPKLLIYWASTLAYGVPSRFSGSGSGTDFTLTISSLQPEDAATYYCAGGYGGGRYAFGQGTKVEIKRTVAAPSVFIFPPSDEQLKSGTASVVCLLNNFYPREAKVQWKVDNALQSGNSQESVTEQDSKDSTYSLSSTLTLSKADYEKHKVYACEVTHQGLSSPVTKSFNRGEC	0.7	1.2	2.5	1.6	0.2	2.6	0.2
